B1: EMD (parent)
chain: YQSKGYNDDYYEESYFTTRTYGEP
B2: S100A14 (parent)
chain: KIANLGSCNDSKLEFRSFWELIGE
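Also: lentivirally expressed fusions sorted by FACS into six bins by GFP to DsRed ratio, PSI derived from sequencing read proportions per bin multiplied by bin number.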

Variants of: B1
Assay: protein stability index of a GFP-peptide fusion (GPS, HEK-293T) (PSI 1-6); higher = more stable
Details: c terminus: a fixed tail appended
Variant YQSKGYNDDYYEESYFTTRTYHEP [G22H] has a protein stability index of 2.13.
In the case of YQSKGYNDDYYEESYFTTRTYEEP [G22E], the protein stability index is reported as 2.76.
For YQSKGYNDDYYEESYFTTRTYWEP [G22W], the protein stability index was 1.93.
YQSKGYNDDYYEESYFTTRTYMEP [G22M] showed a protein stability index of 1.96.
Variant YQSKGYNDDYYEESYFTTRTYPEP [G22P] has a protein stability index of 2.27.
Work on YQSKGYNDDYYEESYFTTRTYFEP [G22F] yielded a protein stability index of 1.77.
YQSKGYNDDYYEESYFTTRTYSEP [G22S] gave a protein stability index of 2.07.
Work on YQSKGYNDDYYEESYFTTRTYQEP [G22Q] yielded a protein stability index of 2.25.
Work on YQSKGYNDDYYEESYFTTRTYIEP [G22I] yielded a protein stability index of 2.13.
In the case of YQSKGYNDDYYEESYFTTRTYLEP [G22L], the protein stability index is reported as 2.01.
Variant YQSKGYNDDYYEESYFTTRTYVEP [G22V] has a protein stability index of 2.02.
Variant YQSKGYNDDYYEESYFTTRTYNEP [G22N] has a protein stability index of 2.46.
Work on YQSKGYNDDYYEESYFTTRTYYEP [G22Y] yielded a protein stability index of 1.49.
Work on YQSKGYNDDYYEESYFTTRTYKEP [G22K] yielded a protein stability index of 2.85.
For YQSKGYNDDYYEESYFTTRTYREP [G22R], the protein stability index was 2.28.
For YQSKGYNDDYYEESYFTTRTYTEP [G22T], the protein stability index was 2.49.
Variant YQSKGYNDDYYEESYFTTRTYGEA [P24A] has a protein stability index of 2.28.
YQSKGYNDDYYEESYFTTRTYGEF [P24F] gave a protein stability index of 1.57.
With YQSKGYNDDYYEESYFTTRTYGEL [P24L] the protein stability index was 2.1.
YQSKGYNDDYYEESYFTTRTYGEH [P24H] gave a protein stability index of 1.97.
In the case of YQSKGYNDDYYEESYFTTRTYGEG [P24G], the protein stability index is reported as 2.51.
YQSKGYNDDYYEESYFTTRTYGER [P24R] showed a protein stability index of 2.05.
For YQSKGYNDDYYEESYFTTRTYGEQ [P24Q], the protein stability index was 2.52.
Work on YQSKGYNDDYYEESYFTTRTYGEW [P24W] yielded a protein stability index of 1.74.
In the case of YQSKGYNDDYYEESYFTTRTYGEC [P24C], the protein stability index is reported as 2.48.
In the case of YQSKGYNDDYYEESYFTTRTYGED [P24D], the protein stability index is reported as 2.89.
With YQSKGYNDDYYEESYFTTRTYGEE [P24E] the protein stability index was 2.12.
Work on YQSKGYNDDYYEESYFTTRTYGEY [P24Y] yielded a protein stability index of 1.83.
Variant YQSKGYNDDYYEESYFTTRTYGEV [P24V] has a protein stability index of 1.85.
For YQSKGYNDDYYEESYFTTRTYGEK [P24K], the protein stability index was 2.58.
In the case of YQSKGYNDDYYEESYFTTRTYGET [P24T], the protein stability index is reported as 1.91.
Variant YQSKGYNDDYYEESYFTTRTYGES [P24S] has a protein stability index of 2.29.
In the case of YQSKGYNDDYYEESYFTTRTYGEN [P24N], the protein stability index is reported as 2.15.
YQSKGYNDDYYEESYFTTRTYGEI [P24I] gave a protein stability index of 1.86.
YQSKGYNDDYYEESYFTTRTYGEM [P24M] gave a protein stability index of 2.28.
Variant YQSKGYNDDYYEESYFTTRTYGVP [E23V] has a protein stability index of 2.48.
Work on YQSKGYNDDYYEESYFTTRTYGAP [E23A] yielded a protein stability index of 1.7.
With YQSKGYNDDYYEESYFTTRTYGCP [E23C] the protein stability index was 2.12.
For YQSKGYNDDYYEESYFTTRTYGLP [E23L], the protein stability index was 2.18.
For YQSKGYNDDYYEESYFTTRTYGIP [E23I], the protein stability index was 1.92.
With YQSKGYNDDYYEESYFTTRTYGHP [E23H] the protein stability index was 2.19.
YQSKGYNDDYYEESYFTTRTYGYP [E23Y] showed a protein stability index of 1.99.
Work on YQSKGYNDDYYEESYFTTRTYGMP [E23M] yielded a protein stability index of 1.55.
Work on YQSKGYNDDYYEESYFTTRTYGPP [E23P] yielded a protein stability index of 2.44.
For YQSKGYNDDYYEESYFTTRTYGTP [E23T], the protein stability index was 2.24.
In the case of YQSKGYNDDYYEESYFTTRTYGNP [E23N], the protein stability index is reported as 2.42.
With YQSKGYNDDYYEESYFTTRTYGKP [E23K] the protein stability index was 2.09.
YQSKGYNDDYYEESYFTTRTYGFP [E23F] showed a protein stability index of 1.51.
With YQSKGYNDDYYEESYFTTRTYGRP [E23R] the protein stability index was 1.91.
In the case of YQSKGYNDDYYEESYFTTRTYGQP [E23Q], the protein stability index is reported as 1.94.
YQSKGYNDDYYEESYFTTRTYGGP [E23G] showed a protein stability index of 2.
Work on YQSKGYNDDYYEESYFTTRTYGWP [E23W] yielded a protein stability index of 2.35.
YQSKGYNDDYYEESYFTTRTYGDP [E23D] gave a protein stability index of 2.28.
YQSKGYNDDYYEESYFTTRTYGSP [E23S] gave a protein stability index of 2.12.

Variants of: B2
Assay: as above
Details: c terminus: a fixed tail appended
KIANLGSCNDSKLIFRSFWELIGE [E14I] gave a protein stability index of 2.54.
With KIANLGSCNDSKLQFRSFWELIGE [E14Q] the protein stability index was 2.06.
In the case of KIANLGSCNDSKLTFRSFWELIGE [E14T], the protein stability index is reported as 1.43.
KSANLGSCNDSKLEFRSFWELIGE [I2S] showed a protein stability index of 2.9.
KNANLGSCNDSKLEFRSFWELIGE [I2N] gave a protein stability index of 1.6.
With KVANLGSCNDSKLEFRSFWELIGE [I2V] the protein stability index was 1.88.
KQANLGSCNDSKLEFRSFWELIGE [I2Q] showed a protein stability index of 1.32.
KPANLGSCNDSKLEFRSFWELIGE [I2P] gave a protein stability index of 2.12.
Variant KIANYGSCNDSKLEFRSFWELIGE [L5Y] has a protein stability index of 1.53.
For KIANCGSCNDSKLEFRSFWELIGE [L5C], the protein stability index was 2.27.
With KIANDGSCNDSKLEFRSFWELIGE [L5D] the protein stability index was 2.67.
KIANSGSCNDSKLEFRSFWELIGE [L5S] showed a protein stability index of 2.29.
Variant KIANGGSCNDSKLEFRSFWELIGE [L5G] has a protein stability index of 1.72.
KIANHGSCNDSKLEFRSFWELIGE [L5H] gave a protein stability index of 1.88.
KIANEGSCNDSKLEFRSFWELIGE [L5E] gave a protein stability index of 2.74.
Variant KIANLGSCNDSKLEFRSMWELIGE [F18M] has a protein stability index of 1.63.
In the case of KIANLGSCNDSKLEFRSGWELIGE [F18G], the protein stability index is reported as 2.43.
KIANLGSCNDSKLEFRSDWELIGE [F18D] gave a protein stability index of 3.52.
With KIANLGSCNDSKLEFRSNWELIGE [F18N] the protein stability index was 2.73.
In the case of KIANLGSCNDSKLEFRSLWELIGE [F18L], the protein stability index is reported as 2.57.
KIANLGSCNDSKLEFRSKWELIGE [F18K] gave a protein stability index of 2.07.
With KIANLGSCNDSKLEFRSYWELIGE [F18Y] the protein stability index was 1.97.
KIANLGSCNDSKLEFRSVWELIGE [F18V] gave a protein stability index of 1.52.
In the case of KIANLGSCNMSKLEFRSFWELIGE [D10M], the protein stability index is reported as 2.85.
In the case of KIANLGSCNISKLEFRSFWELIGE [D10I], the protein stability index is reported as 1.72.
Work on KIANLGSCNPSKLEFRSFWELIGE [D10P] yielded a protein stability index of 1.64.
For KIANLGSCNQSKLEFRSFWELIGE [D10Q], the protein stability index was 1.7.
In the case of KIANLGSCNWSKLEFRSFWELIGE [D10W], the protein stability index is reported as 3.28.
For KIANLGSCNKSKLEFRSFWELIGE [D10K], the protein stability index was 1.98.
Work on KIANLGSCNSSKLEFRSFWELIGE [D10S] yielded a protein stability index of 2.4.
In the case of KIANLGSCNDSKLEFRPFWELIGE [S17P], the protein stability index is reported as 1.65.
For KIANLGSCNDSKLEFRMFWELIGE [S17M], the protein stability index was 1.29.
Work on KIANLGSCNDSKLEFRDFWELIGE [S17D] yielded a protein stability index of 1.95.
With KIANLGSCNDSKLEFRKFWELIGE [S17K] the protein stability index was 2.2.
With KIANLGSCNDSKLEFRCFWELIGE [S17C] the protein stability index was 2.16.
For KIANLGSCNDSKLEFRAFWELIGE [S17A], the protein stability index was 3.38.
For KIANLGSCNDSKLEFRYFWELIGE [S17Y], the protein stability index was 1.84.
KIANLGSCNDSKMEFRSFWELIGE [L13M] showed a protein stability index of 2.03.
Work on KIANLGSCNDSKDEFRSFWELIGE [L13D] yielded a protein stability index of 2.17.
KIANLGSCNDSKYEFRSFWELIGE [L13Y] showed a protein stability index of 2.12.

Reference: the supplement of paper PMC10567573
